This experiment has as its target Paracoccidioides americana (Pb03) Cbp1 (Paracoccidioides americana (Pb03)). Briefly: crystal structure.

For “Paracoccidioides americana (Pb03) Cbp1 (natural protein)”, the stoichiometry N was found to be 2.

(Values after paper doi:10.1101/2021.09.16.459956.)
